# Laboratory results published in the supplement of paper PMC7877785.
# ± gives the uncertainty stated by the source.
# Experiment: self-splicing fitness, log relative to wild type (ln ratio); higher = more splicing; Tetrahymena group I intron in knt gene, E. coli kanamycin selection, DiMSum; sequences stand for … in CUCUCU…GGAGGGAAAAGUUAUCAGGCAUGCACCUGGUAGCUAGUCUUUAAACCAAUAGAUUGCAUCGGUUUAAAAGGCAAGACCGUCAAAUUGCGGGAAAGGGGUCAACAGCCGUUCAGUACCAAGUCUCAGGGGAAACUUUGAGAUGGCCUUGCAAAGGGUAUGGUAAUAAGCUGACGGACAUGGUCCUAACCACGCAGCCAAGUCCUAAGUCAACAGAUCUUCUGUUGAUAUGGAUGCAGUUCACAGACUAAAUGUCGGUCGGGGAAGAUGUAUUCUUCUCAUAAGAUAUAGUCGGACCUCUCCUUAAUGGGAGCUAGCGGAUGAAGUGAUGCAACACUGGAGCCGCUGGGAACUAAUUUGUAUGCGAAAGUAUAUUGAUUAGUUUUGGAGUACUCGUGGUCG
# Procedure, shortened: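 DiMSum derived fitness as the error-weighted combination of fold changes across replicates, kanamycin versus no kanamycin, normalised to wild type. E. coli BL21(DE3) held the library, which randomised all eight P1ex-region intron nucleotides within the knt kanamycin-resistance gene on pET-22b(+). Six replicate transformations grew overnight at 37°C or 30°C on LB agar with or without 25 μg/mL kanamycin, also containing 100 μg/mL carbenicillin, 50 μM IPTG and 0.2% rhamnose, and pooled colonies were amplicon-sequenced on an Illumina HiSeq 2500.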
Sequence,self-splicing fitness (ln) (30 °C),self-splicing fitness (ln) (37 °C)
UCAUAGCAAUAUUACGGUCU,-3.49 ± 0.16,-2.31 ± 0.14
CAAAAGCAAUAUUACGCGAU,-4 ± 0.3,-1.78 ± 0.23
CGCUAGCAAUAUUACGCUAG,-2.63 ± 0.22,-2.16 ± 0.27
ACCUAGCAAUAUUACGGCCC,-0.812 ± 0.18,-0.39 ± 0.24
GUUCAGCAAUAUUACGCUAU,-1.32 ± 0.081,-0.451 ± 0.092
AUAUAGCAAUAUUACGUGAC,–,-2.85 ± 0.32
GCAAAGCAAUAUUACGUUCC,-0.778 ± 0.082,-0.849 ± 0.14
CACGAGCAAUAUUACGCCAC,-2.97 ± 0.38,-1.02 ± 0.34
ACCAAGCAAUAUUACGCCUU,-2.87 ± 0.15,-1.97 ± 0.15
CACAAGCAAUAUUACGUAUU,-3.81 ± 0.17,-2.66 ± 0.15
GCAGAGCAAUAUUACGGACU,-2.18 ± 0.34,-1.9 ± 0.21
GAACAGCAAUAUUACGUCGC,-1.61 ± 0.11,-0.68 ± 0.12
CUUUAGCAAUAUUACGGCUU,-3.62 ± 0.32,–
UGACAGCAAUAUUACGAGGU,-3.28 ± 0.15,-2.65 ± 0.21
CGCAAGCAAUAUUACGUUCG,-1.86 ± 0.069,-0.23 ± 0.082
UCUCAGCAAUAUUACGAACA,-1.41 ± 0.12,-1.01 ± 0.13
UAAAAGCAAUAUUACGGGAA,-2.63 ± 0.2,-1.18 ± 0.12
GUAUAGCAAUAUUACGUCAC,-3 ± 0.29,-1.7 ± 0.26
UGCGAGCAAUAUUACGAUGA,-2.13 ± 0.16,-1.4 ± 0.13
UUCUAGCAAUAUUACGGACA,-0.456 ± 0.097,0.211 ± 0.12
GCGGAGCAAUAUUACGUGUU,-2.9 ± 0.31,-1.47 ± 0.18
UACGAGCAAUAUUACGCGUU,-1.67 ± 0.2,-3.64 ± 0.42
GUGCAGCAAUAUUACGACGC,-0.518 ± 0.099,0.23 ± 0.13
UAAGAGCAAUAUUACGGAUG,-2.57 ± 0.35,-2.59 ± 0.49
UAUGAGCAAUAUUACGCCAU,-2.15 ± 0.2,-2.59 ± 0.3

Sequence,self-splicing fitness (ln) (30 °C),self-splicing fitness (ln) (37 °C)
GACAAGCAAUAUUACGCCCU,-0.581 ± 0.14,0.33 ± 0.15
AGCUAGCAAUAUUACGUCUU,-0.517 ± 0.098,0.46 ± 0.14
GGUCAGCAAUAUUACGUAUC,-0.892 ± 0.078,-0.138 ± 0.1
AAUAAGCAAUAUUACGACGG,-2.35 ± 0.15,-1.34 ± 0.19
GACAAGCAAUAUUACGCCGC,-3.31 ± 0.4,-2.97 ± 0.43
GUUUAGCAAUAUUACGGCUA,-1.45 ± 0.33,-1.68 ± 0.31
UACAAGCAAUAUUACGCUGA,-2.32 ± 0.13,-1.78 ± 0.13
AACGAGCAAUAUUACGUAUU,-3.1 ± 0.16,-1.85 ± 0.14
CGCGAGCAAUAUUACGUGAA,-3.57 ± 0.28,-2.56 ± 0.35
AGAUAGCAAUAUUACGCAGA,-2.95 ± 0.18,-2.32 ± 0.2
GCGCAGCAAUAUUACGGGUU,-1.71 ± 0.042,-0.67 ± 0.053
AACAAGCAAUAUUACGCUUA,-2.08 ± 0.1,-1.21 ± 0.1
ACAAAGCAAUAUUACGGGCC,-3.9 ± 0.3,-2.32 ± 0.24
ACUAAGCAAUAUUACGGGCC,-2.88 ± 0.2,-1.73 ± 0.21
GAUCAGCAAUAUUACGACGC,-0.169 ± 0.077,0.198 ± 0.09
UUCAAGCAAUAUUACGGGUU,-2.38 ± 0.12,-0.76 ± 0.12
GCGAAGCAAUAUUACGCCAA,–,-1.82 ± 0.39
UUCAAGCAAUAUUACGUAAC,–,-2.22 ± 0.42
CAAGAGCAAUAUUACGGGGC,-1.99 ± 0.14,-3.02 ± 0.25
UUGGAGCAAUAUUACGGGCA,–,-1.45 ± 0.35
UGCCAGCAAUAUUACGUCAU,-3 ± 0.16,-2.38 ± 0.18
GGAGAGCAAUAUUACGGUUU,-2.6 ± 0.094,-1.15 ± 0.092
UCCCAGCAAUAUUACGAAUC,-2.49 ± 0.26,-1.93 ± 0.3
CACAAGCAAUAUUACGAGUU,-2.91 ± 0.11,-1.13 ± 0.089
UAUCAGCAAUAUUACGGUGG,-1.2 ± 0.077,-0.377 ± 0.088

Sequence,self-splicing fitness (ln) (30 °C),self-splicing fitness (ln) (37 °C)
UAGGAGCAAUAUUACGUGCU,-3.16 ± 0.34,-1.05 ± 0.23
CAGUAGCAAUAUUACGUUAA,-2.74 ± 0.19,-3.5 ± 0.23
AGACAGCAAUAUUACGAAGC,–,-1.62 ± 0.28
AUGCAGCAAUAUUACGAUGU,-0.358 ± 0.061,0.146 ± 0.085
CACCAGCAAUAUUACGUUUU,-3.95 ± 0.15,-3.22 ± 0.18
UAAGAGCAAUAUUACGUGGG,-3.82 ± 0.42,-2.68 ± 0.27
GGCAAGCAAUAUUACGCAGU,-1.88 ± 0.12,-1.43 ± 0.13
CUAUAGCAAUAUUACGCGAU,-2.31 ± 0.12,-1.5 ± 0.12
ACUCAGCAAUAUUACGAAGG,-0.983 ± 0.1,-1.19 ± 0.14
UCAGAGCAAUAUUACGAUCU,-3.62 ± 0.21,-2.88 ± 0.28
UCUUAGCAAUAUUACGAUAC,–,-3.06 ± 0.34
CUACAGCAAUAUUACGAUCG,-0.0619 ± 0.061,0.736 ± 0.085
GAAUAGCAAUAUUACGAUUA,-0.73 ± 0.093,0.156 ± 0.11
UGUGAGCAAUAUUACGGUUU,-3.66 ± 0.21,-2.65 ± 0.25
GACUAGCAAUAUUACGCAUG,-1.24 ± 0.063,-0.455 ± 0.075
CCCGAGCAAUAUUACGUAAA,-3.27 ± 0.15,-2.94 ± 0.2
ACGCAGCAAUAUUACGCCUG,-2.79 ± 0.2,-2.42 ± 0.33
CACAAGCAAUAUUACGGAAC,-4.35 ± 0.24,-3.71 ± 0.25
CGGCAGCAAUAUUACGCCAC,-2.97 ± 0.23,-1.52 ± 0.3
GUGCAGCAAUAUUACGAGAC,-2.12 ± 0.13,-1.53 ± 0.12
GGAGAGCAAUAUUACGGGUC,-1.54 ± 0.15,-1.53 ± 0.2
CAUAAGCAAUAUUACGAUUA,-1.64 ± 0.14,-1.4 ± 0.14
GCGCAGCAAUAUUACGCGCU,–,-1.41 ± 0.28
UGCUAGCAAUAUUACGCUGA,-1.25 ± 0.12,-1.18 ± 0.13
UGUGAGCAAUAUUACGGCAC,-3.21 ± 0.23,-2.21 ± 0.23

Sequence,self-splicing fitness (ln) (30 °C),self-splicing fitness (ln) (37 °C)
GGGGAGCAAUAUUACGUCCG,-0.963 ± 0.13,-0.326 ± 0.2
AACCAGCAAUAUUACGGAUA,-0.931 ± 0.069,-0.176 ± 0.074
UGUAAGCAAUAUUACGAAUA,-0.825 ± 0.21,-0.536 ± 0.23
UGUUAGCAAUAUUACGGAUG,-1.89 ± 0.12,-0.39 ± 0.11
AGCGAGCAAUAUUACGAUGU,-2.99 ± 0.19,-1.46 ± 0.18
AGCGAGCAAUAUUACGGCCU,-0.967 ± 0.17,-0.258 ± 0.19
UAGGAGCAAUAUUACGUGAU,-3.75 ± 0.35,-1.44 ± 0.3
GUGUAGCAAUAUUACGUUAU,-2.81 ± 0.16,-2.41 ± 0.2
AUGUAGCAAUAUUACGGCUG,-1.95 ± 0.14,-2.27 ± 0.28
GAGCAGCAAUAUUACGUGUA,-2 ± 0.12,-0.876 ± 0.094
UCGUAGCAAUAUUACGUGAG,-3.55 ± 0.19,-1.35 ± 0.15
CCGGAGCAAUAUUACGAUCC,-2.16 ± 0.49,–
UGGCAGCAAUAUUACGCCGU,-2.63 ± 0.18,-2.02 ± 0.17
GGGUAGCAAUAUUACGGAAC,-0.98 ± 0.11,-1.49 ± 0.19
UGCAAGCAAUAUUACGUAUA,-2.49 ± 0.18,-0.379 ± 0.12
UCCCAGCAAUAUUACGAUCG,-3.52 ± 0.3,-2.79 ± 0.16
CAUAAGCAAUAUUACGCUGU,-3.79 ± 0.27,-1.05 ± 0.15
AAUAAGCAAUAUUACGUCGG,-1.91 ± 0.14,-1.75 ± 0.18
UACUAGCAAUAUUACGCACA,-0.646 ± 0.079,0.021 ± 0.092
CCCUAGCAAUAUUACGAGAC,-3.85 ± 0.22,-2.69 ± 0.34
AUCGAGCAAUAUUACGGACG,-2.42 ± 0.17,-2.96 ± 0.2
UGUAAGCAAUAUUACGGCCU,-1.08 ± 0.1,-0.452 ± 0.12
AUCGAGCAAUAUUACGUGGA,-3.68 ± 0.37,-2.33 ± 0.22
